# Measurements as given in patent publication US20180371086A1 (Gilead, published 2018).
# Experiments:
# [1] = molecular target: HIV-1 Env of virus MGRM-D-014 (HIV-1); assay: cell-based or functional assay
# [2] = molecular target: HIV-1 Env of virus MGRM-F1-020 (HIV-1); assay: cell-based or functional assay
# [3] = molecular target: HIV-1 Env of virus MGRM-F1-014 (HIV-1); assay: cell-based or functional assay
# [4] = molecular target: HIV-1 Env of virus MGRM-F1-013 (HIV-1); assay: cell-based or functional assay
# [5] = molecular target: HIV-1 Env of virus MGRM-F1-016 (HIV-1); assay: cell-based or functional assay
# [6] = molecular target: HIV-1 Env of virus MGRM-F1-004 (HIV-1); assay: cell-based or functional assay
# [7] = molecular target: HIV-1 Env of virus MGRM-F1-006 (HIV-1); assay: cell-based or functional assay
# [8] = molecular target: HIV-1 Env of virus MGRM-G-014 (HIV-1); assay: cell-based or functional assay
# [9] = molecular target: HIV-1 Env of virus MGRM-G-001 (HIV-1); assay: cell-based or functional assay
# [10] = molecular target: HIV-1 Env of virus MGRM-G-019 (HIV-1); assay: cell-based or functional assay
# [11] = molecular target: HIV-1 Env of virus MGRM-G-024 (HIV-1); assay: cell-based or functional assay
# [12] = molecular target: HIV-1 Env of virus MGRM-Acute-B-009 (HIV-1); assay: cell-based or functional assay
# [13] = molecular target: HIV-1 Env of virus MGRM-Chronic-B-020 (HIV-1); assay: cell-based or functional assay
# [14] = molecular target: HIV-1 Env of virus MGRM-Chronic-B-006 (HIV-1); assay: cell-based or functional assay
# [15] = molecular target: HIV-1 Env of virus MGRM-Chronic-B-023 (HIV-1); assay: cell-based or functional assay
# [16] = molecular target: HIV-1 Env of virus MGRM-Chronic-B-003 (HIV-1); assay: cell-based or functional assay
# [17] = molecular target: HIV-1 Env of virus MGRM-Chronic-B-016 (HIV-1); assay: cell-based or functional assay
# [18] = molecular target: HIV-1 Env of virus MGRM-Acute-B-010 (HIV-1); assay: cell-based or functional assay
# [19] = molecular target: HIV-1 Env of virus MGRM-Chronic-B-001 (HIV-1); assay: cell-based or functional assay
# [20] = molecular target: HIV-1 Env of virus MGRM-Chronic-B-015 (HIV-1); assay: cell-based or functional assay
# [21] = molecular target: HIV-1 Env of virus MGRM-Chronic-B-019 (HIV-1); assay: cell-based or functional assay
# [22] = molecular target: HIV-1 Env of virus MGRM-Chronic-B-007 (HIV-1); assay: cell-based or functional assay
# [23] = molecular target: HIV-1 Env of virus MGRM-C-022 (HIV-1); assay: cell-based or functional assay
# [24] = molecular target: HIV-1 Env of virus MGRM-C-023 (HIV-1); assay: cell-based or functional assay
# [25] = molecular target: HIV-1 Env of virus MGRM-C-008 (HIV-1); assay: cell-based or functional assay
# [26] = molecular target: HIV-1 Env of virus MGRM-C-017 (HIV-1); assay: cell-based or functional assay
# [27] = molecular target: HIV-1 Env of virus MGRM-C-005 (HIV-1); assay: cell-based or functional assay
# [28] = molecular target: HIV-1 Env of virus MGRM-C-002 (HIV-1); assay: cell-based or functional assay
# [29] = molecular target: HIV-1 Env of virus MGRM-C-012 (HIV-1); assay: cell-based or functional assay
# [30] = molecular target: HIV-1 Env of virus MGRM-C-024 (HIV-1); assay: cell-based or functional assay
# [31] = molecular target: HIV-1 Env of virus MGRM-C-028 (HIV-1); assay: cell-based or functional assay
# [32] = molecular target: HIV-1 Env of virus MGRM-C-018 (HIV-1); assay: cell-based or functional assay
# [33] = molecular target: HIV-1 Env of virus MGRM-C-013 (HIV-1); assay: cell-based or functional assay
# [34] = molecular target: HIV-1 Env of virus MGRM-A-002 (HIV-1); assay: cell-based or functional assay
# [35] = molecular target: HIV-1 Env of virus MGRM-A-009 (HIV-1); assay: cell-based or functional assay
# [36] = molecular target: HIV-1 Env of virus MGRM-A-012 (HIV-1); assay: cell-based or functional assay
# [37] = molecular target: HIV-1 Env of virus MGRM-A-013 (HIV-1); assay: cell-based or functional assay
# [38] = molecular target: HIV-1 Env of virus MGRM-AG-006 (HIV-1); assay: cell-based or functional assay
# [39] = molecular target: HIV-1 Env of virus MGRM-AG-009 (HIV-1); assay: cell-based or functional assay
# [40] = molecular target: T1, Human FcRn (human, UniProt P55899 24-297; P61769 21-119); assay: ELISA, FcRn coated on plate, pH 6.0
# T1 construct: also called neonatal Fc receptor
# Protocol: (§1) The binding of antibodies to FcRn of various antibody variants at different pHs was determined. A 96-well Maxisorp plate was coated with 100 ul of 5 μg/ml FcRn. The plate was incubated overnight at 4° C., and then blocked with 4% skim milk for 2 hr at room temperature after washing 3 times with 0.05% Tween 20 washing buffer. […] The plate was then washed 3 times and 100 μL of Fab-anti-human Fab-HRP or Goat anti-human IgG-HRP secondary antibody diluted in 4% skimmed milk was added. Plates were then incubated 50 min at room temperature, washed three times, and 100 μL fresh TMB substrate was added. Plates were developed for 3 minutes on bench with gentle shaking. Plate was quenched with 100 μL 1M HCl, shaken briefly, read at A450 on a spectramax m5 plate reader.
# [41] = molecular target: T1, Human FcRn; assay: ELISA, FcRn coated on plate; pH 7.0/6.0 ratio against that of PGT121
# Protocol: as §1
# T1 sequence (P55899 24-297 limits assumed, chain 1 of 2): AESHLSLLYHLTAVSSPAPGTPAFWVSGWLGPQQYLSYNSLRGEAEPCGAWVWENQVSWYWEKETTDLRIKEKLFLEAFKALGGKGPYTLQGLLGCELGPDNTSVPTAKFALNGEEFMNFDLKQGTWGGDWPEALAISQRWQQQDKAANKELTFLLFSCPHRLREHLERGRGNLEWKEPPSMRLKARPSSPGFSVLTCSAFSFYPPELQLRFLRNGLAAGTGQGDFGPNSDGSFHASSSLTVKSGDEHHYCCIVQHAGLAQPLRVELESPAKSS
# T1 sequence (P61769 21-119 limits assumed, chain 2 of 2): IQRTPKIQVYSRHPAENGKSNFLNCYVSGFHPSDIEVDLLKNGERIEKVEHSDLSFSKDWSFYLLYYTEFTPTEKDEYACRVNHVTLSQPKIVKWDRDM
binder,measurement,setting,value
PGT121.60 hIgG1/hLambda (antibody) heavy: QMQLQESGPGLVKPSETLSLTCSVSGASISDSYWSWIRRSPGKGLEWIGYVHKSGDTNYNPSLKSRVHLSLDTSKNQVSLSLTGVTAADSGKYYCARTLHGRRIYGIVAFNEWFTYFYMDVWGTGTQVTVSSASTKGPSVFPLAPSSKSTSGGTAALGCLVKDYFPEPVTVSWNSGALTSGVHTFPAVLQSSGLYSLSSVVTVPSSSLGTQTYICNVNHKPSNTKVDKKVEPKSCDKTHTCPPCPAPELLAGPDVFLFPPKPKDTLMISRTPEVTCVVVDVSHEDPEVKFNWYVDGVEVHNAKTKPREEQYNSTYRVVSVLTVLHQDWLNGKEYKCKVSNKALPLPEEKTISKAKGQPREPQVYTLPPSREEMTKNQVSLTCLVKGFYPSDIAVEWESNGQPENNYKTTPPVLDSDGSFFLYSKLTVDKSRWQQGNVFSCSVLHEALHSHYTQKSLSLSPGK light: not shown,PGT121.60 IC50,[1],0.0019 µg/mL
same,PGT121.60 IC50,[2],0.041 µg/mL
same,PGT121.60 IC50,[3],0.0509 µg/mL
same,PGT121.60 IC50,[4],0.0871 µg/mL
same,PGT121.60 IC50,[5],0.522 µg/mL
same,PGT121.60 IC50,[6],0.547 µg/mL
same,PGT121.60 IC50,[7],2.33 µg/mL
same,PGT121.60 IC50,[8],0.0034 µg/mL
same,PGT121.60 IC50,[9],0.005 µg/mL
same,PGT121.60 IC50,[10],0.0091 µg/mL
same,PGT121.60 IC50,[11],0.0119 µg/mL
same,PGT121.60 IC50,[12],0.0016 µg/mL
same,PGT121.60 IC50,[13],0.0018 µg/mL
same,PGT121.60 IC50,[14],0.002 µg/mL
same,PGT121.60 IC50,[15],0.0034 µg/mL
same,PGT121.60 IC50,[16],0.0079 µg/mL
same,PGT121.60 IC50,[17],0.0283 µg/mL
same,PGT121.60 IC50,[18],0.0328 µg/mL
same,PGT121.60 IC50,[19],0.0985 µg/mL
same,PGT121.60 IC50,[20],0.185 µg/mL
same,PGT121.60 IC50,[21],0.199 µg/mL
same,PGT121.60 IC50,[22],2.55 µg/mL
same,PGT121.60 IC50,[23],0.0038 µg/mL
same,PGT121.60 IC50,[24],0.0044 µg/mL
same,PGT121.60 IC50,[25],0.0044 µg/mL
same,PGT121.60 IC50,[26],0.0058 µg/mL
same,PGT121.60 IC50,[27],0.0078 µg/mL
same,PGT121.60 IC50,[28],0.0095 µg/mL
same,PGT121.60 IC50,[29],0.0338 µg/mL
same,PGT121.60 IC50,[30],0.0826 µg/mL
same,PGT121.60 IC50,[31],0.744 µg/mL
same,PGT121.60 IC50,[32],10.3 µg/mL
same,PGT121.60 IC50,[33],12.3 µg/mL
same,PGT121.60 IC50,[34],0.0047 µg/mL
same,PGT121.60 IC50,[35],0.0074 µg/mL
same,PGT121.60 IC50,[36],0.0397 µg/mL
same,PGT121.60 IC50,[37],0.0561 µg/mL
same,PGT121.60 IC50,[38],0.0106 µg/mL
same,PGT121.60 IC50,[39],0.0868 µg/mL
same,EC50,[40],0.22 nM
same,Fold vs PGT121,[41],11 fold
